Consider three molecules from paper PMC3074190 (Molecular carcinogenesis, 2010).

The target of one assay is T1, GST-β-catenin-S37A (human, UniProt P35222 1-781, S37A).
T1 sequence (looked up): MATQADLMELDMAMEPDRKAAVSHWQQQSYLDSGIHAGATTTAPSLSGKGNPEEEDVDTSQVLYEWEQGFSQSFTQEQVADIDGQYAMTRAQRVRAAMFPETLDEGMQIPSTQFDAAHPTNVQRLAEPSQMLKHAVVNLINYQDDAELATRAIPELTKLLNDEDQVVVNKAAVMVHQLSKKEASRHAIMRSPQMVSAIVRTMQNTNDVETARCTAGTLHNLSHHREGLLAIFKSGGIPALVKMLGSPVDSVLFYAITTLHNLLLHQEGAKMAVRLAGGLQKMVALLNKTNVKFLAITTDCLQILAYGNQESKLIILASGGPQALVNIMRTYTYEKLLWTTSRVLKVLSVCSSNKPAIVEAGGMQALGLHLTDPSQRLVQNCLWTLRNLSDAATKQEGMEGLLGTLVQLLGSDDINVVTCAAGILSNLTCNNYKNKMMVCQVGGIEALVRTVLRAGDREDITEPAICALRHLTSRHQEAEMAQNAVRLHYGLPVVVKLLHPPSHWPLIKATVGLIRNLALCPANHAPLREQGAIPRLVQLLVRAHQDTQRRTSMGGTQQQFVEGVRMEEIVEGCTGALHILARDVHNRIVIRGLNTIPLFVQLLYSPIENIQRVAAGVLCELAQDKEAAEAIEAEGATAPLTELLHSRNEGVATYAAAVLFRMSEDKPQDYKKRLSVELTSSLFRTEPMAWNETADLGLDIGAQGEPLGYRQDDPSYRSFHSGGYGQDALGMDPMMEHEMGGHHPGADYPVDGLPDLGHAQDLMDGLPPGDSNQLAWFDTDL
As to the kind of experiment: pull-down.

Assay [1] deals with β-catenin bait (BD fusion) (human) (UniProt P35222). As to the kind of experiment: two-hybrid.

B1: VDR Δ1–88, N-terminally truncated VDR, 35S-methionine labelled (domain or fragment, human, UniProt P11473 89-427, looked up)
chain: MMKEFILTDEEVQRKREMILKRKEEEALKDSLRPKLSEEQQRIIAILLDAHHKTYDPTYSDFCQFRPPVRVNDGGGSHPSRPNSRHTPSFSGDSSSSCSDHCITSSDMMDSSSFSNLDLSEEDSDDPSVTLELSQLSMLPHLADLVSYSIQKVIGFAKMIPGFRDLTSEDQIVLLKSSAIEVIMLRSNESFTMDDMSWTCGNQDYKYRVSDVTKAGHSLELIEPLIKFQVGLKKLNLHEEEHVLLMAICIVSPDRPGVQDAALIEAIQDRLSNTLQTYIRCRHPPPGSHLLYAKMIQKLADLRSLNEEHSKQYRCLSFQPECSMKLTPLVLEVFGNEIS
modifications: 35S-methionine labelled
For the molecule B1, the “band intensity with GST-β-catenin, fold over GST-only control” value with GST-β-catenin-S37A was 7.1 fold.

B2: VDR prey (AD fusion), wild type (natural protein)
chain: MEAMAASTSLPDPGDFDRNVPRICGVCGDRATGFHFNAMTCEGCKGFFRRSMKRKALFTCPFNGDCRITKDNRRHCQACRLKRCVDIGMMKEFILTDEEVQRKREMILKRKEEEALKDSLRPKLSEEQQRIIAILLDAHHKTYDPTYSDFCQFRPPVRVNDGGGSHPSRPNSRHTPSFSGDSSSSCSDHCITSSDMMDSSSFSNLDLSEEDSDDPSVTLELSQLSMLPHLADLVSYSIQKVIGFAKMIPGFRDLTSEDQIVLLKSSAIEVIMLRSNESFTMDDMSWTCGNQDYKYRVSDVTKAGHSLELIEPLIKFQVGLKKLNLHEEEHVLLMAICIVSPDRPGVQDAALIEAIQDRLSNTLQTYIRCRHPPPGSHLLYAKMIQKLADLRSLNEEHSKQYRCLSFQPECSMKLTPLVLEVFGNEIS
In assay [1], B2 returned a fold increase of the two-hybrid signal with 1,25D over vehicle of 12 fold and a fold increase of the two-hybrid signal with LCA over vehicle of 8 fold.

B3: human vitamin D receptor, full-length wild type (F/M4 allele), 35S-methionine labelled (natural protein, UniProt P11473 4-427, looked up)
chain: MAASTSLPDPGDFDRNVPRICGVCGDRATGFHFNAMTCEGCKGFFRRSMKRKALFTCPFNGDCRITKDNRRHCQACRLKRCVDIGMMKEFILTDEEVQRKREMILKRKEEEALKDSLRPKLSEEQQRIIAILLDAHHKTYDPTYSDFCQFRPPVRVNDGGGSHPSRPNSRHTPSFSGDSSSSCSDHCITSSDMMDSSSFSNLDLSEEDSDDPSVTLELSQLSMLPHLADLVSYSIQKVIGFAKMIPGFRDLTSEDQIVLLKSSAIEVIMLRSNESFTMDDMSWTCGNQDYKYRVSDVTKAGHSLELIEPLIKFQVGLKKLNLHEEEHVLLMAICIVSPDRPGVQDAALIEAIQDRLSNTLQTYIRCRHPPPGSHLLYAKMIQKLADLRSLNEEHSKQYRCLSFQPECSMKLTPLVLEVFGNEIS
modifications: 35S-methionine labelled
With B3, in the assay with GST-β-catenin-S37A, the “band intensity with GST-β-catenin, fold over GST-only control” value stood at 8.3 fold.
